Reference: patent US20080096219A1

Target: horseradish peroxidase-conjugated IgG (Wako Pure Chemical Industries, Ltd.)
Test: protein A immobilized on a platinum microelectrode (-100 mV), incubated with 0.5 mg/ml HRP-conjugated IgG, peroxidase luminescence read by luminometer

Q: polyhistidine-fused protein A was tested. Which amount of luminescence did it give?
A: 1.4e+10 cps
